Experimental data as given in patent US20080146500A1, “Selective Vpac2 Receptor Peptide Agonists” (priority 2004, published 2008).
Read-outs that look alike come from different tables or passages of the source. Ends that are not written are not given here.

Legend:
[1] = target: T1, human VPAC1 (Homo sapiens, UniProt P32241); experiment: Filter binding assay, membranes from cells transiently transfected with human VPAC1, 125I-labeled VIP tracer; conditions: read-out: Human receptor binding (IC50; nM) VPAC1
T1 construct: expressed in transfected cells
T1 sequence (P32241 31-457): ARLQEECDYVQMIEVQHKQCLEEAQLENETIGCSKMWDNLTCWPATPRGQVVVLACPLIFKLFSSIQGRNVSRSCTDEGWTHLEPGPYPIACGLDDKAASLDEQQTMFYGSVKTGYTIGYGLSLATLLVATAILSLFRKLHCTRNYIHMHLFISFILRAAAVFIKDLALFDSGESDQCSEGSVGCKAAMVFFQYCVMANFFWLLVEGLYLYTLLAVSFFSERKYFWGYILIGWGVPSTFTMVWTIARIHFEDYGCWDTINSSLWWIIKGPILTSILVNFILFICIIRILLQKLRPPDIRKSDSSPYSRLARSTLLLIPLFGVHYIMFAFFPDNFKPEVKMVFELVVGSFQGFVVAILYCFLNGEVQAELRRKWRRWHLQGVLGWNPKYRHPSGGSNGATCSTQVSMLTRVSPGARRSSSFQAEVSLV
Description: For this assay, the solutions and equipment include:
Presoak solution: 0.5% Polyethyleneamine in Aqua dest.
Buffer for flushing filter plates: 25 mM HEPES pH 7.4
Blocking buffer: 25 mM HEPES pH 7.4; 0.2% protease free BSA
Assay buffer: 25 mM HEPES pH 7.4; 0.5% protease free BSA
Dilution and assay plate: PS-Microplate, U form
Filtration Plate Multiscreen FB Opaque Plate; […] Type B Glasfiber filter
In order to prepare the filter plates, the presoak solution is aspirated by vacuum filtration. The plates are flushed twice with 200 μL flush buffer. 200 μL blocking buffer is added to the filter plate. The filter plate is then incubated with 200 μL presoak solution for 1 hour at room temperature.
The assay plate is filled with […] (2.5 μg) suspended in assay buffer, 25 μL compound (agonist) in assay buffer, and 25 μL tracer (about 40000 cpm) in assay buffer. The filled plate is incubated for 1 hour with shaking.
The transfer from assay plate to filter plate is conducted. The blocking buffer is aspirated by vacuum filtration and washed two times with flush buffer. 90 μL is transferred from the assay plate to the filter plate. The 90 μL transferred from assay plate is aspirated and washed three times with 200 μL flush buffer. The plastic support is removed. It is dried for 1 hour at 60° C. 30 μL Microscint is added. The count is performed.
Values reported are single results or the mean of two or more independent runs.

[2] = target: T2, rat VPAC1 receptor (Rattus norvegicus, UniProt P30083); experiment: Rat VPAC1 in vitro potency (cAMP generation, DiscoveRx) in transiently transfected CHO-PO cells; assay type: cell-based; conditions: CHO-PO cells transiently transfected with rat VPAC1; read-out: rVPAC1 in vitro potency (cAMP generation) EC50
T2 construct: expressed in transfected cells; host or cells: CHO-PO cells, transient
T2 sequence (P30083 31-459): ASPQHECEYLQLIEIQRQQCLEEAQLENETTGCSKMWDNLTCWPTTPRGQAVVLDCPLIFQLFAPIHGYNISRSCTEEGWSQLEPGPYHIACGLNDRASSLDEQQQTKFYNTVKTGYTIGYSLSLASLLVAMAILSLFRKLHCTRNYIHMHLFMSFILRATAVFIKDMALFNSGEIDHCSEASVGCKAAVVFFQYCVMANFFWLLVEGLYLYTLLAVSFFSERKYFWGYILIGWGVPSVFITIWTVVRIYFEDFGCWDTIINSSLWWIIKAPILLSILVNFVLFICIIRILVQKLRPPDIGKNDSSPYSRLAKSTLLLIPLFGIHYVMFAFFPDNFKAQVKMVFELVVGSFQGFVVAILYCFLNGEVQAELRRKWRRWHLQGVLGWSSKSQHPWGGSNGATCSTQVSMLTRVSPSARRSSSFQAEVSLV
Description: Rat receptor selectivity is estimated by comparing functional potency (cAMP generation) in CHO-PO cells transiently expressing rat VPAC1 or rat VPAC2 receptors. CHO-PO cells transiently expressing rat VPAC1 or VPAC2, are seeded with 10,000 cells/well three days before the assay. The cells are kept in 200 μL culture medium. […] The stimuli are present for 30 minutes. The assay buffer is then gently removed.

[3] = Rat serum stability at 37 C, remaining active peptide estimated by EC50,4C/EC50,37C in CHO-VPAC2 cAMP assay; conditions: for Estimated serum stability (%): after 24 h in rat serum at 37 C
Description: The rat serum is stored at 4° C. until use and is used within two weeks.
On Day 0, two 100 μL aliquots of 10 μM peptide in rat serum are prepared by adding 10 μL peptide stock to 90 μL rat serum for each aliquot. 250 kIU aprotinin/mL is added to one of these aliquots. The aliquot is stored with aprotinin at 4° C. The aliquot is stored without aprotinin at 37° C. The aliquots are incubated for […].
On Day 1, after incubation of the aliquots prepared on day 0 for 24 hours, an incubation buffer containing PBS+1.3 mM CaCl2, 1.2 mM MgCl2, 2 mM glucose, and 0.25 mM IBMX is prepared. A plate with 11 serial 5× dilutions of peptide for the 4° C. and 37° C. aliquot is prepared for each peptide studied. […] The plate(s) are washed with cells twice in incubation buffer. The plates are allowed to hold 50 μL incubation media per well for 15 minutes. 50 μL solution per well is transferred to the cells from the plate prepared with 11 serial 5× dilutions of peptide for the 4° C. and 37° C. aliquot for each peptide studied, using the maximal concentrations that are indicated by the primary screen, in duplicate. This step dilutes the peptide concentration by a factor of two. The cells are incubated at room temperature for 30 minutes. The supernatant is removed. 40 μL/well of the DiscoveRx antibody/extraction buffer is added. The cells are incubated on the shaker (300 rpm) for 1 hour. Normal procedure with the DiscoveRx kit is followed. cAMP standards are included in column 12. EC50 values are determined from the cAMP assay data.

[4] = values >100% may represent release of intact peptide from the PEG conjugate

Row | Substance | IC50 [1] [nM] | EC50 [2] [nM] | Estimated serum stability (%) [3, 4] [%] | Estimated 72 h stability (%) ([3]; after 72 h in rat serum at 37 C, values >100% may represent release of intact peptide from the PEG conjugate) | Estimated 72 h stability (%) [3] [%]
1 | C6-HDAVFTEQY(OMe)TOrnLRAibQVAAAibOrnYLQSIOrnOrnGGPSSGAPPPC(PEG60K)-NH2 [Agonist P404] | > 3000 | 23.4 | 320.7 | – | –
2 | C6-HSDAVFTDNYTOrnLRAibQVAAAibKYLQC(PEG40K)IOrnNOrnGGPSSGAPPPS (HSDAVFTDNYTXLRXQVAAXKYLQCIXNXGGPSSGAPPPS; non-natural residues) [Agonist P373] | > 25000 | 350 | 73.6 | 47.1 | –
3 | C6-HSDAVFTEQY(OMe)TOrnLRAibQVAK(CO(CH2)2SPEG40K)AibOrnYLQSIOrnOrnGGPSSGAPPPS-NH2 (HSDAVFTEQYTXLRXQVAXXXYLQSIXXGGPSSGAPPPS; non-natural residues) [Agonist P432] | > 3000 | > 100 | 102.1 | – | –
4 | P137: PEGylated material obtained from P120 and methoxy-PEG2-MAL-40K (HSDAVFTDNYTRLRKQVAAKKYLQSIKNKRYGGPSSGAPPPC; also: PEGylated with methoxy-PEG2-MAL-40K, site not given here) [Agonist P137] | 853 | 29.7 | – | – | 52.8
